Data set [1] deals with the molecule itself. Briefly: not stated; isolated RelB and isolated RelE in solution; data not shown.
The target of data set [2] is T1, Escherichia coli RelE R81A (untagged, full-length toxin) (Escherichia coli, UniProt P0C077 1-95, R81A).
T1 construct: RelE toxin of the relBE locus, Escherichia coli, 95 residues, R81A active-site mutant; also called R81A active-site mutant
T1 sequence (looked up): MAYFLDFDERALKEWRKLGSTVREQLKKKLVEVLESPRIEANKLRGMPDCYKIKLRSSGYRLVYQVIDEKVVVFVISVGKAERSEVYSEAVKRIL
The data set is described as follows: crystal structure; RelB2E2 reconstituted from purified RelB and RelE R81A; crystals at 4°C, 1.6-2.0 M ammonium sulfate, 0.1 M Na acetate pH 4.6; space group P6(1)22; 2.8 Å. The note with it: both partners purified.

B1: Escherichia coli RelB (untagged, intact antitoxin) (natural protein, UniProt P0C079 1-79, looked up)
chain: MGSINLRIDDELKARSYAALEKMGVTPSEALRLMLEYIADNERLPFKQTLLSDEDAELVEIVKERLRNPKPVRVTLDEL
notes: RelB antitoxin of the relBE locus, Escherichia coli, 79 residues (residues 2-79 of 79 seen in the structure); Untagged; Details of purification are in the Supplemental Experimental Procedures; source: E. coli, plasmid pSC2524HE encoding His-tagged RelE R81A and untagged RelB; purified by denaturation, ion exchange, gel filtration
As for B1, the stoichiometry N (in general, a count of units in the complex or per binding partner) in data set [1] is 4. Moreover, in data set [2], the binding result is “binds”.

Source of the values: paper PMC3507626, “The Crystal Structure of the Intact E. coli RelBE Toxin-Antitoxin Complex Provides the Structural Basis for Conditional Cooperativity” (Structure(London, England:1993), 2012).
